In test [1] the target is 人TPO受体(MPL)，表达于Ba/F3细胞 (human) (UniProt P40238). Description: cell-based or functional assay.
Test [2] has the same target. Description: cell-based or functional assay. This is another data set of the same source.

In turn, “人TPO(R&D Systems) (from UniProt P40225 22-353) (ligand)” showed an ED50，BaF/mpl细胞增殖(WST-8) in test [1] of 0.027 nM.

B1: 抗体12B5(IgG) (antibody, from another filing)
scFv: QVQLVQSGGGLVRPGGSLSLSCAVSGITLRTYGMHWVRQAPGKGLEWVAGISFDGRSEYYADSVQGRFTISRDSSKNTLYLQMNSLRAEDTAVYYCARGAHYGFDIWGQGTMVTVSSGGGGTGGGGSGGGGSDIQMTQSPSTLSASIGDRVTITCRASEGIYHWLAWYQQKPGKAPKLLIYKASSLASGAPSRFSGSGSGTDFTLTISSLQPDDFATYYCQQYSNYPLTFGGGTKLEIK
B1 yielded an ED50，TPO样激动剂活性(BaF/mpl细胞增殖，WST-8) in test [2] of 29 nM.
